The supplement of paper PMC10065799, “High-throughput profiling of sequence recognition by tyrosine kinases and SH2 domains using bacterial peptide display” (eLife, 2023)

Experiments:
[1] = biological target: FGFR3 (UniProt P22607); test: phosphorylation enrichment, bacterial display (enrichment ratio); higher = better substrate or ligand; peptides without Tyr show the background
[2] = system: AncSZ; test: as above
[3] = biological target: Hck (UniProt P08631); test: as above
[4] = system: c-Src; test: as above
[5] = system: c-Abl (mouse); test: as above
[6] = biological target: MERTK (UniProt Q12866); test: as above
[7] = biological target: Fyn (UniProt P06241); test: as above
[8] = biological target: FGFR1 (UniProt P11362); test: as above
[9] = biological target: Fes (UniProt P07332); test: as above
[10] = biological target: EPHB1 (UniProt P54762); test: as above
[11] = biological target: EPHB2 (UniProt P29323); test: as above
[12] = system: Fer (mouse); test: as above
[13] = biological target: Jak2 (UniProt O60674); test: as above
[14] = biological target: c-Src SH2; test: SH2 binding enrichment of the phosphorylated peptide, bacterial display (enrichment ratio); higher = better substrate or ligand; peptides without Tyr show the background
[15] = biological target: Grb2 SH2 (UniProt P62993); test: as above
[16] = biological target: SHP2-C SH2; test: as above
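Wherever SH2 binding enrichment of the phosphorylated peptide, bacterial display is given: peptide library displayed on the E. coli surface as eCPX fusions, selected cells deep-sequenced, score is each peptide's frequency after selection divided by its frequency in the input.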
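Wherever phosphorylation enrichment, bacterial display is given: 11-residue human phosphosite peptides and single-mutation variants displayed on the E. coli surface, counted by deep sequencing, each peptide's frequency after selection divided by its frequency in the unselected input library; frequency after pTyr selection over input frequency; kinase dosed for 20-30% of maximal phosphorylation in three min.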

Chain of Jak2 (O60674 whole entry, looked up): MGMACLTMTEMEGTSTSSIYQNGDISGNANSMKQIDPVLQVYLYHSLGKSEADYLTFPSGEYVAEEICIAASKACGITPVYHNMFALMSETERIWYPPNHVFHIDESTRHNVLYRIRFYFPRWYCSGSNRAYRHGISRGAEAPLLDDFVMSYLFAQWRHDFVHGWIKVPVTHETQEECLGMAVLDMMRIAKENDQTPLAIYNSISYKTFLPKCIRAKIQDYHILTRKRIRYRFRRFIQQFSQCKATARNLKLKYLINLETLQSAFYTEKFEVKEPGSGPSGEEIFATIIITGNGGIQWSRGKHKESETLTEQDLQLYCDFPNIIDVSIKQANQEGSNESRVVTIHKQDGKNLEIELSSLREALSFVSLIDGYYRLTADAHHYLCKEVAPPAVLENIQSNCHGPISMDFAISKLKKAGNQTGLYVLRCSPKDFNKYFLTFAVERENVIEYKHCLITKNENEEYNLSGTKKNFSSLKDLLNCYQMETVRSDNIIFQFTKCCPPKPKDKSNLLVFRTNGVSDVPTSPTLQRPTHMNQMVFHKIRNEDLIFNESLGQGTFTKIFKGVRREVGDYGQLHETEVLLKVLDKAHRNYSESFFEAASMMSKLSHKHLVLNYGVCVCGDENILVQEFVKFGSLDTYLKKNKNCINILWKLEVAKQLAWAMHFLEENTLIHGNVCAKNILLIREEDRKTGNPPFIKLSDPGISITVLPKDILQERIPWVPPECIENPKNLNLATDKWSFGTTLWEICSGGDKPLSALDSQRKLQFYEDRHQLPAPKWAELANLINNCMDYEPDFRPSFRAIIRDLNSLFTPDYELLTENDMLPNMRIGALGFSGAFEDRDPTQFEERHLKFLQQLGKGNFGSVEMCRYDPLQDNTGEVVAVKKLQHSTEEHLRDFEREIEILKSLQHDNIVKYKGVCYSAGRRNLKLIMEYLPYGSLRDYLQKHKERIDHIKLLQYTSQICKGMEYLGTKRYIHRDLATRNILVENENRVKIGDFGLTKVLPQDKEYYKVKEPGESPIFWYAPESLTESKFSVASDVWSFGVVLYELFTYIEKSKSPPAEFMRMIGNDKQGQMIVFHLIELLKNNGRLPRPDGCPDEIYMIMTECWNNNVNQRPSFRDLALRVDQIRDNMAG
Chain of MERTK (Q12866 whole entry, looked up): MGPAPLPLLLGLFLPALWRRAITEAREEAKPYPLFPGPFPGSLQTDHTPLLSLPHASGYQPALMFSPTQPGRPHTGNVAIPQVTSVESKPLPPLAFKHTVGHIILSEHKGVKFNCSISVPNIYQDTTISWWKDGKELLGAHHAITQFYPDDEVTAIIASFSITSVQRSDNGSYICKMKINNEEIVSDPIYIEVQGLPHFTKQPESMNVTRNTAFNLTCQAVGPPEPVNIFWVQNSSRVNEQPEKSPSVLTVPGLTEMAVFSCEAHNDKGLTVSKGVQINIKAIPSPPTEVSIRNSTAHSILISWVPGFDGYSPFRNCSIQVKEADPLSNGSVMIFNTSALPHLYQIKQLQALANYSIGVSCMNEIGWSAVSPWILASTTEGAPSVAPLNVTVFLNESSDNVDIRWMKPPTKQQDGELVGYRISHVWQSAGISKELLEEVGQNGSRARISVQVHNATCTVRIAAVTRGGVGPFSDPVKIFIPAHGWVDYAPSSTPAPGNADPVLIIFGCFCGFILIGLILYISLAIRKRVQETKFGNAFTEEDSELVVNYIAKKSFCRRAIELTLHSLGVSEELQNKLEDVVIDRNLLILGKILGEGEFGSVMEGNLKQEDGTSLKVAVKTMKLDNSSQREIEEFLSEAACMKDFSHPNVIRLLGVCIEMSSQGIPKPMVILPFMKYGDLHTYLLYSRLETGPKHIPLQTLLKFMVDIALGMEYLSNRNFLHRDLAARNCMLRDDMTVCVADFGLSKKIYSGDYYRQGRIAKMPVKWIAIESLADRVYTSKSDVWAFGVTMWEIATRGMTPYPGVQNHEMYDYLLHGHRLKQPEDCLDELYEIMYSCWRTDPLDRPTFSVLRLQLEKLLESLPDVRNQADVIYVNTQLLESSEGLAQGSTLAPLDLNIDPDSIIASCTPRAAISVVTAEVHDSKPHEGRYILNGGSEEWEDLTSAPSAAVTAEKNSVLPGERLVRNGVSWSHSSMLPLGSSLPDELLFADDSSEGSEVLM
Chain of EPHB2 (P29323 whole entry, looked up): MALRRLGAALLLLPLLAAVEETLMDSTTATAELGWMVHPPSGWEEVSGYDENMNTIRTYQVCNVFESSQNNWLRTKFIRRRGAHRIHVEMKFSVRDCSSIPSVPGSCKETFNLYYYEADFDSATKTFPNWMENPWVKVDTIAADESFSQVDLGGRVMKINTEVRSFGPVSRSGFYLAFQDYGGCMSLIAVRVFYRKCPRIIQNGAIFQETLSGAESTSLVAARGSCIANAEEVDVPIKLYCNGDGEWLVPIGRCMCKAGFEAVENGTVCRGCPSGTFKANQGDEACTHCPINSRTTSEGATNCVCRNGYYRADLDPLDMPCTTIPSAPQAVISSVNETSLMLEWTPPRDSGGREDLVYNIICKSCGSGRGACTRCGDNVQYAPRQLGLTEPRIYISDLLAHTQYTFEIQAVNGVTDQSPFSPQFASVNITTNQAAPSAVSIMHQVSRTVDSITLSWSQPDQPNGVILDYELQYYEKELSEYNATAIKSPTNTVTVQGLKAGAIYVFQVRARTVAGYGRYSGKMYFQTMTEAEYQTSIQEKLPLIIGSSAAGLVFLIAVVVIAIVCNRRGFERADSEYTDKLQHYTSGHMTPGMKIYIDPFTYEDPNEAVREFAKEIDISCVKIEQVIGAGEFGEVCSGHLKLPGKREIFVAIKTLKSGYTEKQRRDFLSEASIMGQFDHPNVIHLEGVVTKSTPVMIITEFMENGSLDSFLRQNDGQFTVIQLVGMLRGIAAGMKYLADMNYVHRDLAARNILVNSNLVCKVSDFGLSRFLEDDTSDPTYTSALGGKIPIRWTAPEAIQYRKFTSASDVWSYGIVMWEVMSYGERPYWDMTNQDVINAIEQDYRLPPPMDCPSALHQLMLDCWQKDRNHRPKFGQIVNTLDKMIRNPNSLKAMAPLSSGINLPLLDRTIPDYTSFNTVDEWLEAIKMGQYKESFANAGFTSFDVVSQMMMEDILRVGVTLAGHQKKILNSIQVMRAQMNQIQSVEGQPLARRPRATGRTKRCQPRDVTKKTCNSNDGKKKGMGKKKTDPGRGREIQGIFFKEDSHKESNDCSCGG
Chain of Fyn (P06241 whole entry, looked up): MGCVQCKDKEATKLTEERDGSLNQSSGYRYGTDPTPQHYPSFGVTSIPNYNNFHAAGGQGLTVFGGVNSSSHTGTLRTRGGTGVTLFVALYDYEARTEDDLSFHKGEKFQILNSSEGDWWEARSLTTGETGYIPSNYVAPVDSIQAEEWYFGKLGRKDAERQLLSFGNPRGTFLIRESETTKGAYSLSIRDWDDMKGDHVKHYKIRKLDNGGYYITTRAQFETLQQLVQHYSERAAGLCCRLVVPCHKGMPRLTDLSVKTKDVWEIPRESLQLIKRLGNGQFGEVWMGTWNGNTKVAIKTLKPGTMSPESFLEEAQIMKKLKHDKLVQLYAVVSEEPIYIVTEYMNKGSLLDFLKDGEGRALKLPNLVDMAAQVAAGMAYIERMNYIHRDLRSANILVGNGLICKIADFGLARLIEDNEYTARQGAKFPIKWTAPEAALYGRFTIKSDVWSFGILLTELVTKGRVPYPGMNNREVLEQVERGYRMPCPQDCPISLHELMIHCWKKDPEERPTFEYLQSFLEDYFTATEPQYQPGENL
Chain of FGFR1 (P11362 whole entry, looked up): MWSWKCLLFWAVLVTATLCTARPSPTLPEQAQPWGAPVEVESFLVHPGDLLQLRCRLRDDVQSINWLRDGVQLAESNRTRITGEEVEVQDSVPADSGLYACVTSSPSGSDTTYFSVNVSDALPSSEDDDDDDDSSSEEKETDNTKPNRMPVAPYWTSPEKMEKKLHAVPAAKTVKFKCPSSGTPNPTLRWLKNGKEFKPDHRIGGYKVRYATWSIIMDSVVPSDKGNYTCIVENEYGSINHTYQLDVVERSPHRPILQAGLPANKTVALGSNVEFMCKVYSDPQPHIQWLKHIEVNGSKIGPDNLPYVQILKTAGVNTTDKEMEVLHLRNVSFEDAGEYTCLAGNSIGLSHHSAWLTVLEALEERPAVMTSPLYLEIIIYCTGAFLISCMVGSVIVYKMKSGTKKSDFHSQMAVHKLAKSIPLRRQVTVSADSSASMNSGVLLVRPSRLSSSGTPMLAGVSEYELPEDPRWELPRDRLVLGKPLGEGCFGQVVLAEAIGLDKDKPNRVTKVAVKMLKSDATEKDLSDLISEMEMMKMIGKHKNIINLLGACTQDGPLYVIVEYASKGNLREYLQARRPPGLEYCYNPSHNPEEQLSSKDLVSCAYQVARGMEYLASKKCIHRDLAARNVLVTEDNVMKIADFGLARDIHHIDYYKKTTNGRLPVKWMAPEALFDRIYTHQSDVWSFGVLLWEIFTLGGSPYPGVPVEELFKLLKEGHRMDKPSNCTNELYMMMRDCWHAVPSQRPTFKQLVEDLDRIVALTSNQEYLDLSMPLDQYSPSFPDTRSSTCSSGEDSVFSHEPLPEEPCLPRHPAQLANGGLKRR
Chain of Grb2 SH2 (P62993 whole entry, looked up): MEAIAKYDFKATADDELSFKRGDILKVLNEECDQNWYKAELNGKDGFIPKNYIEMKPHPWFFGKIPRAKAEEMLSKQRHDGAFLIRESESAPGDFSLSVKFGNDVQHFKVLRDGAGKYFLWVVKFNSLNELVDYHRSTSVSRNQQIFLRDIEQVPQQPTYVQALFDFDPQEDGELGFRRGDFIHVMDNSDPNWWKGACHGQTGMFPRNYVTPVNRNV

| Sequence | phosphorylation enrichment [1] | phosphorylation enrichment [2] | phosphorylation enrichment [3] | phosphorylation enrichment [4] | phosphorylation enrichment [5] | phosphorylation enrichment [6] | phosphorylation enrichment [7] | phosphorylation enrichment [8] | phosphorylation enrichment [9] | phosphorylation enrichment [10] | phosphorylation enrichment [11] | phosphorylation enrichment [12] | phosphorylation enrichment [13] | SH2 binding enrichment [14] | SH2 binding enrichment [15] | SH2 binding enrichment [16] |
| --- | --- | --- | --- | --- | --- | --- | --- | --- | --- | --- | --- | --- | --- | --- | --- | --- |
| PKGTGYIKTES [STAT1_Y701_L706S] | 0.487 | 0.588 | 0.525 | 0.601 | 0.868 | 0.553 | 0.466 | 0.604 | 1.2 | 0.504 | 0.449 | 0.392 | 1.22 | 0.425 | 0.997 | 0.427 |
| DNAFQYMLTDR [MYH7_Y164_YF] | 0.584 | 0.955 | 0.494 | 0.543 | 0.47 | 0.374 | 0.47 | 0.461 | 1.02 | 0.44 | 0.496 | 0.472 | 0.738 | 0.685 | 0.923 | 0.767 |
| ETESPYQELQG [TYROBP_Y91] | 0.834 | 1.24 | 0.9 | 1.52 | 0.83 | 0.669 | 0.775 | 0.91 | 1.39 | 0.624 | 0.646 | 0.673 | 1.3 | 0.61 | 0.635 | 0.543 |
| IMICAYLLHRG [PTEN_Y138_V133I] | 0.77 | 1.3 | 0.525 | 0.566 | 1.19 | 0.536 | 0.709 | 0.534 | 1.35 | 0.617 | 0.687 | 0.827 | 1.23 | 0.695 | 1.23 | 1.16 |
| LKVKAYRFSIS [LCT_Y974] | 0.835 | 0.911 | 0.6 | 0.463 | 0.824 | 0.493 | 0.648 | 0.9 | 1.22 | 0.672 | 0.498 | 0.52 | 1.3 | 0.713 | 1.25 | 0.641 |
| MSRDVYSTDCY [NTRK2_Y702_Y706C] | 0.766 | 0.993 | 0.972 | 2.32 | 0.993 | 1.51 | 2.1 | 0.726 | 1.14 | 0.718 | 0.701 | 0.631 | 1.06 | 0.932 | 1.15 | 0.719 |
| KLKRSYCSPDI [USP8_Y717_S718C] | 0.534 | 0.538 | 0.393 | 0.433 | 0.534 | 0.459 | 0.401 | 0.415 | 0.712 | 0.36 | 0.37 | 0.318 | 0.648 | 0.785 | 0.931 | 0.907 |
| NTGLDYIKFTW [HRH1_Y386] | 1.26 | 1.37 | 0.495 | 0.612 | 0.902 | 0.605 | 0.39 | 1.64 | 1.31 | 0.647 | 0.742 | 0.402 | 1.92 | 0.475 | 0.892 | 0.811 |
| QMVRMYASSFM [AVPR2_Y124_G122R_YF] | 0.677 | 1.26 | 0.425 | 0.328 | 0.745 | 0.544 | 0.605 | 0.605 | 0.843 | 0.59 | 0.552 | 0.482 | 0.769 | 0.571 | 0.831 | 0.774 |
| RLCQDYDIIGP [ANK1_Y1073_T1075I] | 1.84 | 2.56 | 2.46 | 1.47 | 0.663 | 1.26 | 1.6 | 2.35 | 1.26 | 10 | 12.7 | 1.81 | 1.17 | 1.29 | 0.703 | 0.781 |
| VPVPGYTKLPE [SPRR3_Y146] | 0.671 | 0.865 | 0.487 | 0.419 | 0.988 | 0.499 | 0.464 | 0.531 | 1.05 | 0.544 | 0.642 | 0.473 | 0.848 | 0.458 | 0.635 | 0.445 |
| VHNLDYYKETT [FGFR3_Y647_K650E] | 0.769 | 0.903 | 0.456 | 0.367 | 0.577 | 0.39 | 0.421 | 0.789 | 0.824 | 0.452 | 0.497 | 0.439 | 0.714 | 0.564 | 0.702 | 0.585 |
| IMVFVYCRVFQ [ADRB2_Y219_S220C] | 0.632 | 0.729 | 0.473 | 0.395 | 0.63 | 0.449 | 0.51 | 0.841 | 0.836 | 0.424 | 0.488 | 0.435 | 0.699 | 0.768 | 1.41 | 1.1 |
| KTVQDYLKKFF [MMP8_Y36_E38K_YF] | 0.545 | 1.07 | 0.494 | 0.488 | 0.66 | 0.494 | 0.575 | 0.523 | 1.05 | 0.473 | 0.371 | 0.563 | 0.795 | 0.42 | 0.649 | 0.56 |
| NLMPAYFKCIQ [CYP21A2_Y190_YF] | 1.01 | 1.4 | 0.61 | 0.526 | 1.09 | 0.539 | 0.546 | 0.617 | 1.6 | 0.74 | 0.707 | 0.768 | 1.61 | 0.494 | 0.904 | 0.639 |
| NNIDYYKKTTN [FGFR2_Y657] | 0.495 | 0.616 | 0.764 | 0.492 | 0.517 | 0.437 | 0.633 | 0.456 | 0.703 | 0.543 | 0.527 | 0.6 | 0.524 | 0.459 | 1.02 | 0.603 |
| KPMDTYFDSTR [DYNC2H1_Y2230_YF] | 0.651 | 0.79 | 0.484 | 0.512 | 0.615 | 0.489 | 0.452 | 0.778 | 0.804 | 0.666 | 0.517 | 0.526 | 0.758 | 0.472 | 0.86 | 0.696 |
| TLNHQYDYTFH [CSNK1A1_Y292_D297H] | 1.38 | 0.998 | 0.596 | 1.16 | 0.512 | 1.11 | 0.536 | 2.69 | 0.753 | 0.772 | 0.873 | 1.4 | 0.654 | 7.34 | 1.01 | 0.874 |
| SVVVPYEAPEV [TP53_Y220_P222A] | 0.8 | 1.2 | 0.492 | 0.405 | 0.79 | 0.969 | 0.442 | 0.483 | 1.01 | 0.649 | 0.485 | 0.546 | 0.998 | 1.26 | 0.79 | 0.808 |
| FMRGMYFRMKD [PLA2G6_Y541_YF] | 0.657 | 1.16 | 0.428 | 0.417 | 0.645 | 0.419 | 0.455 | 0.442 | 1.12 | 0.518 | 0.542 | 0.399 | 1.14 | 0.767 | 0.897 | 1.17 |
| TYVVLYDAELT [ERCC4_Y581_R576T] | 1.52 | 1.37 | 0.891 | 0.795 | 0.67 | 2.56 | 0.87 | 1.79 | 1.16 | 4.46 | 2.67 | 0.515 | 1.05 | 1.53 | 1.64 | 1.36 |
| CRERPYGGGGG [FUS_Y526_R521C] | 0.468 | 0.631 | 0.481 | 0.377 | 0.459 | 0.438 | 0.389 | 0.556 | 1.13 | 0.552 | 0.406 | 0.647 | 0.587 | 0.651 | 0.87 | 0.593 |
| MAQDIYRASFF [ALK_Y1278_R1275Q_YF] | 0.482 | 0.683 | 2.06 | 2.28 | 12.2 | 0.66 | 1.52 | 0.462 | 0.69 | 0.353 | 0.499 | 0.446 | 0.711 | 0.456 | 1.04 | 0.738 |
| SVTYTYSPALN [TP53_Y126_C124Y] | 1.34 | 1.5 | 1.17 | 0.998 | 1.78 | 2.79 | 0.967 | 1.24 | 1.16 | 0.95 | 0.87 | 0.621 | 0.997 | 0.453 | 0.76 | 0.717 |
| KQQEIYQELTQ [CD209_Y239] | 2.3 | 1.35 | 6.43 | 5.59 | 1.77 | 4.81 | 6.33 | 3.1 | 1.07 | 5.8 | 3.03 | 3.56 | 0.917 | 0.585 | 1.14 | 0.673 |
| TNYCLYLRSLE [MTM1_Y71_R69C] | 1 | 1.67 | 0.668 | 0.887 | 0.883 | 1.19 | 0.545 | 0.814 | 1.46 | 1.93 | 1.52 | 0.614 | 1.29 | 0.696 | 1.18 | 2 |
| HDRNTYEKYLG [TF_Y666] | 0.909 | 2.4 | 1.4 | 1.82 | 0.731 | 0.765 | 1.41 | 0.676 | 0.796 | 0.781 | 0.759 | 0.668 | 0.453 | 1.21 | 0.935 | 0.874 |
| TFGQVYKGRHV [TNIK_Y40_YF] | 0.368 | 0.524 | 0.406 | 0.437 | 0.555 | 0.34 | 0.39 | 0.347 | 0.545 | 0.401 | 0.367 | 0.33 | 0.598 | 0.752 | 0.893 | 1.24 |
| RSSPVYVGRVV [TGM2_Y219] | 0.82 | 1.18 | 2.22 | 1.42 | 1.71 | 0.818 | 1.42 | 0.77 | 1.03 | 0.59 | 0.796 | 0.945 | 1.03 | 0.758 | 1.13 | 1.39 |
